From patent US7550150B2, “Methods of treating or preventing a disease, disorder or condition associated with a viral infection” (Barros Research Institute, priority 2005, dated 2009)
Several values for one entry are separate records, joined by “and”; a condition that tells them apart may be missing. Identical values can stand only once. Like-named read-outs stand apart in the source and are kept apart here. Marks after values point to notes of the source that are not given here.

Columns and labels:
[1] = for tolerability in toxicity control animals: all surviving and losing no weight during therapy; for Tox Controls Surv/Total: uninfected, two treatments
[2] = Uninfected toxicity controls (Example 7); format: in vivo, BALB/c mice
Procedure: Experiment Design: Animals were injected i.p. with either 10^−3 dilution of Banzi virus stocks diluted in minimal essential media (MEM), or were sham-inoculated. This virus concentration had previously produced approximately 90% mortality in mice. Animals were treated with two doses of 10, 1, 0.1 μg/mouse of Barrogen or with drug vehicle (placebo group). The first dose was administered 4-6 h prior to virus inoculation. The second dose was given 48 h later. As a positive control a group of 15 infected mice were treated with a single dose of Ampligen® 24 h prior to virus inoculation at a dose of 1 mg/kg. Groups of 3 sham-inoculated animals used as toxicity controls were treated with identical compounds on identical schedules to the infected animals.

[3] = test system: Banzi virus (H336 strain); test: Banzi virus infection in mice (Example 7); format: in vivo, BALB/c mice; conditions: for Infected, treated MDD ± SD: mice dying before day 21; for weight loss: placebo 9.6%; for Average brain titer: placebo 6.9
[4] = test system: influenza virus; conditions: orally; cited from earlier work
[5] = test system: Punta Toro virus, Adames strain; set-up: species or system C57BL/6 mice; conditions: mouse, in vivo
[6] = toxicity controls; 75 mg/kg/day i.p. bid x5
[7] = test system: Punta Toro virus, Adames strain; set-up: species or system C57BL/6 mice; conditions: mouse, in vivo; remark: listed apart in the source
[8] = test system: Banzi virus (H336 strain); format: in vivo, Balb/c mice; conditions: for Infected, treated % survival (alive/total): 21 days; for Infected, treated % Mean wt. change: day 0 vs day 10
[9] = dosages used; no deaths or weight loss
[10] = every dose used
[11] = dosages used; no deaths or weight loss; remark: listed apart in the source
[12] = 0.1 μg/treatment i.p. −4 hpi and 2 dpi
[13] = 1 μg/treatment i.p. −4 hpi and 2 dpi
[14] = 0.1 μg/mouse/day i.p. 4-6 h pre-virus and 48 hr later
[15] = 1 μg/mouse/day i.p. 4-6 h pre-virus and 48 hr later
[16] = 10 μg/mouse/day i.p. 4-6 h pre-virus and 48 hr later

GM-CSF: Granulocyte macrophage - colony stimulating factor
tolerability in toxicity control animals [1]: well tolerated
Tox Controls Surv/Total ([1]; 20 ng i.p.): 3/3
Tox Controls Surv/Total ([1]; 200 ng i.p.): 3/3

poly I · poly C12u [Ampligen, reference compound]
Uninfected toxicity control Surv/Total ([2]; 1 mg/kg i.p. single dose): 3/3 (100%)
Infected, treated Surv/Total ([3]; 1 mg/kg i.p. single dose 24 h pre-virus exposure): 10/10 (100%)***
survival ([3]; 1 mg/kg single dose 24 h prior, p<0.001): 100%
animals with virus detected in brain ([3]; 1 mg/kg, 8 dpi): 1 of the 5
brain virus titer ([3]; 1 mg/kg, 8 dpi, placebo 6.9 log10 CCID50/g of tissue): 5.6
average weight gain ([3]; 1 mg/kg, by 8 dpi): 1.9%

CCOC(=O)C1=C[C@@H](OC(CC)CC)[C@H](NC(C)=O)[C@@H](N)C1 [Oseltamivir]
doses down to which highly active against influenza virus infections in mice [4]: ~1 mg/kg/day

NC(=O)c1ncn([C@@H]2O[C@H](CO)[C@@H](O)[C@H]2O)n1 [Ribavirin, reference compound]
Liver virus [5]: not detectable
weight loss during the treatment period [6]: 0.8 g

B1: rBBX-01: Recombinant Apicomplexa-related protein (ARP) having the sequence of SEQ ID NO:20; termed Barrogen, also called rBBX-01 or E1 (protein, listed as Eimeria tenella)
chain: GEEADTQAWDTSVREWLVDTGRVFAGGVASIADGCRLFGAAVEGEGNAWEELVKTNYQIEVPQEDGTSISVDCDEAETLRQAVVDGRAPNGVYIGGTKYKLAEVKRDFTFNDQNYDVAILGKNKGGGFLIKTPNENVVIALYDEEKEQNKADALTTALNFAEYLYQGGF
Hepatic icterus reduced [7]: 17-43%
mice protected / cured [7]: 100%
serum ALT [7]: markedly reduced
serum virus titers [7]: significantly reduced
Mean Liver Score ± SD ([7]; ip): 2.6 ± 0.2 and 2.7 ± 0.3 and 2.0 ± 0.6 and 2.9 ± 0.5
mice protected (survival) [5]: 100%
reduction of serum viral load [5]: more than 2 logs
serum ALT [5]: markedly reduced
tolerability in toxicity control animals [1]: well tolerated
Uninfected toxicity control Surv/Total ([2]; 0.1 μg/mouse/day i.p., two doses 48 h apart): 3/3 (100%)
Uninfected toxicity control Surv/Total ([2]; 1 μg/mouse/day i.p., two doses 48 h apart): 3/3 (100%)
Uninfected toxicity control Surv/Total ([2]; 10 μg/mouse/day i.p., two doses 48 h apart): 3/3 (100%)
Infected, treated % survival (alive/total) [8, 12]: 47% (7/15)**
Infected, treated % Mean wt. change [8, 12]: -1.4 g
Infected, treated % survival (alive/total) [8, 13]: 47% (7/15)**
Infected, treated % Mean wt. change [8, 13]: -1.0 g
mean-day-to-death ([8]; Barrogen-treated vs placebo-treated mice (FIG. 30)): significant increase
tolerability in toxicity controls [9]: well tolerated
tolerability in toxicity control mice [10]: well tolerated
tolerability in toxicity controls [11]: well tolerated
Infected, treated Surv/Total [3, 14]: 5/10 (50%)*
Infected, treated MDD ± SD [3, 14]: 8.4 ± 5.5
virus in the brains ([3]; 0.1 μg/mouse, 8 dpi): No virus was detected
weight loss ([3]; 0.1 μg/mouse, 8 dpi): 0.2%
survival ([3]; 0.1 μg/mouse, placebo 10%, p<0.05): 50%
Infected, treated Surv/Total [3, 15]: 7/10 (70%)***
Infected, treated MDD ± SD [3, 15]: 14.3 ± 1.5
animals with virus detected in brain ([3]; 1 μg/mouse, 8 dpi): 2 out of 5
Average brain titer ([3]; 1 μg/mouse, 8 dpi): 4.6 log10 CCID50
weight loss ([3]; 1 μg/mouse, 8 dpi): 0.5%
survival ([3]; 1 μg/mouse, placebo 10%, p<0.001): 70%
Infected, treated Surv/Total [3, 16]: 4/10 (40%)
Infected, treated MDD ± SD [3, 16]: 14.2 ± 3.5
animals with virus detected in brain ([3]; 10 μg/mouse, 8 dpi): 2 out of 5
Average brain titer ([3]; 10 μg/mouse, 8 dpi): 2.8 log10 CCID50
weight loss ([3]; 10 μg/mouse, 8 dpi): 1.3%
survival ([3]; 10 μg/mouse, not significantly higher than placebo): 40%
